This is an account of results in patent publication US20100029568A1, “TIGHTER-BINDING C-PEPTIDE INHIBITORS OF HIV-1 ENTRY” (priority 2007, published 2010).

For assay [1], the target named is Res 2 (L33S) Env from HIV-1 strain HXB2 (HIV-1 strain HXB2), P04578. Kind of assay: cell-based or functional assay.
Assay [2] concerns the target V549E mutant Env (Res1) from HIV-1 strain HXB2 (HIV-1 strain HXB2), P04578. Kind of assay: cell-based or functional assay.
The target in assay [3] is Res 3 Env (N637K) from HIV-1 strain HXB2 (HIV-1 strain HXB2), P04578. Kind of assay: cell-based or functional assay.
Assay [4] has as its target Res 4 (SDTV) Env from HIV-1 strain HXB2 (HIV-1 strain HXB2), P04578. Kind of assay: cell-based or functional assay.
The target in assay [5] is wild type Env (gp120/gp41) from HIV-1 strain HXB2 (HIV-1 strain HXB2), P04578. Kind of assay: cell-based or functional assay.
In assay [6] the target is N36 (HIV-1), P04578. Kind of assay: estimated Kd; method not stated; reference is wild type C37 on N36.
Assay [7] addresses N36 (HIV-1), P04578. Kind of assay: estimated Kd; method not stated.

Where only a bound is given, the exact number is not on record here.

On to HTTWMEWDREINKYISLIHSLIEESQNQQEKNEQELL (modifications not checked) [C37-KYI], for which the IC50, nM; inhibitory potency against pseudotyped HIV-1 in assay [1] is 1 nM; in assay [2], 4.2 nM; in assay [3] it was 4.1 nM; in assay [4], 0.6 nM; in assay [5], 1 nM. In addition, the fold lower Kd than wild type C37 in assay [6] is above 20 fold. Moreover, in assay [7], the Kd was 0.04 pM.
